Data from patent US20250145710A1 (INTEGRAL MOLECULAR, published 2025).
Substitutions are numbered along the chain they refer to. One block for each binder: values may come before it.

Assays:
human CLDN3 = target: T1, human CLDN3 (human, UniProt O15551 1-220); assay: binding to cells expressing CLDN3 (FIG. 34 text)
T1 construct: whole, on cells; also called claudin 3
T1 sequence (looked up): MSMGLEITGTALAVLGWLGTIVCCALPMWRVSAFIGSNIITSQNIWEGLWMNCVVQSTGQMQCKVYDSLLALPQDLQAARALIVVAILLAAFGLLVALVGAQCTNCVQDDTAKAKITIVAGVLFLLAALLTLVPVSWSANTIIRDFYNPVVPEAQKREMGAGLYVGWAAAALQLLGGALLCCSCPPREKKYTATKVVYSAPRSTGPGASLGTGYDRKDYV

human CLDN9 = target: T2, human CLDN9 (human, UniProt O95484 1-217); assay: binding to cells expressing CLDN9 (FIG. 33B, FIG. 34 text)
T2 construct: whole, on cells; also called claudin 9
T2 sequence (looked up): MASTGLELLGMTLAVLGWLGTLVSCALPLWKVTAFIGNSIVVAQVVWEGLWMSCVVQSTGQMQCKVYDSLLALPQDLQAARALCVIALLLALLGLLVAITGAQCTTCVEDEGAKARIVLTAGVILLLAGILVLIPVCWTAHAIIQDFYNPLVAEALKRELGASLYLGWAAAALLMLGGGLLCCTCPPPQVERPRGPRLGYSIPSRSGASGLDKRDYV

human CLDN4 = target: T3, human CLDN4 (human, UniProt O14493 1-209); assay: binding to cells expressing CLDN4 (FIG. 34 text)
T3 construct: whole, on cells; also called claudin 4
T3 sequence (looked up): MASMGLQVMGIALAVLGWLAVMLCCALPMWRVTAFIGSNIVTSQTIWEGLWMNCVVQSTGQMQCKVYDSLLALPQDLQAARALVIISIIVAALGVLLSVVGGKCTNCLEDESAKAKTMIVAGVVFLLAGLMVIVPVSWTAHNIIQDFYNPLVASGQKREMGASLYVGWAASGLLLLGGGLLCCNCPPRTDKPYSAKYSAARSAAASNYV

human CLDN6 [1] = target: T4, human CLDN6 (human, UniProt P56747 1-220); assay: cell-based or functional assay
T4 sequence (looked up): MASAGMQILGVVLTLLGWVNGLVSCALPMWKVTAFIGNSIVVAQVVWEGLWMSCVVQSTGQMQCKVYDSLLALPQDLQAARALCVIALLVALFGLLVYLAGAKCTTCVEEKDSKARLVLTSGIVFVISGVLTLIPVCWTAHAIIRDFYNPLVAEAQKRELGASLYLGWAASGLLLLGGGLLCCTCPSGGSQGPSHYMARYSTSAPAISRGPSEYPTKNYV

human CLDN6 [2] = target: T4, human CLDN6; assay: flow cytometry on a CLDN negative parental cell line transfected with CLDN6, CLDN4, CLDN3 or CLDN9 (FIG. 12D)
human CLDN6 [3] = target: T4, human CLDN6; assay: flow cytometry on a CLDN negative parental cell line transfected with CLDN6, CLDN4, CLDN3 or CLDN9 (FIG. 12C)
human CLDN6 [4] = target: T4, human CLDN6; assay: flow cytometry on a CLDN negative parental cell line transfected with CLDN6, CLDN4, CLDN3 or CLDN9 (FIG. 12A)

binding result (human CLDN3): no binding | binding result (human CLDN9): no binding | binding result (human CLDN4): no binding | cytokine activation assay (IL-6, IL-2, TNF-alpha, IL-8) in human PBMC co-cultured with K562 cells (human CLDN6 [1]): ~10 fold more potent than RefMAB #3
B1: IMC-16-3 scFv-Fab IgG antibody (bispecific antibody)
heavy: EVQLLESGGGLVQPGGSLRLSCAASGFTFSSYAMNWVRQAPGKGLEWVAGISSSGRYTGYADSVKGRFTISRDNSKNTLYLQMNSLRAEDTAVYYCAKSVGSGVSWSGYVATSLDAWGQGTLVTVSSASTKGPSVFPLAPSSKSTSGGTAALGCLVKDYFPEPVTVSWNSGALTSGVHTFPAVLQSSGLYSLSSVVTVPSSSLGTQTYICNVNHKPSNTKVDKKVEPKSCDKTHTCPPCPAPEAAGGPSVFLFPPKPKDTLMISRTPEVTCVVVDVSHEDPEVKFNWYVDGVEVHNAKTKPREEQYNSTYRVVSVLTVLHQDWLNGKEYKCKVSNKALPAPIEKTISKAKGQPREPQVYTLPPSREEMTKNQVSLWCLVKGFYPSDIAVEWESNGQPENNYKTTPPVLDSDGSFFLYSKLTVDKSRWQQGNVFSCSVMHEALHNHYTQKSLSLSPGK
light: SYELTQPPSVSVSPGQTARITCSAGSGLYGWYQQKPGQAPVLVIYGTNKRPSGIPERFSGSSSGTTVTLTISGVQAEDEADYYCGSADSSTNAGIFGGGTKLTVLGQPKAAPSVTLFPPSSEELQANKATLVCLISDFYPGAVTVAWKADSSPVKAGVETTTPSKQSNNKYAASSYLSLTPEQWKSHRSYSCQVTHEGSTVEKTVAPTECS
scFv: EVQLVESGGGLVQPGGSLRLSCAASGFTFSTYAMNWVRQAPGKGLEWVGRIRSKYNNYATYYADSVKGRFTISRDDSKNTLYLQMNSLRAEDTAVYYCVRHGNFGDSYVSWFAYWGQGTLVTVSSGKPGSGKPGSGKPGSGKPGSQAVVTQEPSLTVSPGGTVTLTCGSSTGAVTTSNYANWVQQKPGKSPRGLIGGTNKRAPGVPARFSGSLLGGKAALTISGAQPEDEADYYCALWYSNHWVFGGGTKLTVLASPKSSDKTHTCPPCPAPEAAGGPSVFLFPPKPKDTLMISRTPEVTCVVVDVSHEDPEVKFNWYVDGVEVHNAKTKPREEQYNSTYRVVSVLTVLHQDWLNGKEYKCKVSNKALPAPIEKTISKAKGQPREPQVYTLPPSREEMTKNQVSLSCAVKGFYPSDIAVEWESNGQPENNYKTTPPVLDSDGSFFLVSKLTVDKSRWQQGNVFSCSVMHEALHNHYTQKSLSLSPGK
notes: also called IMC-16-3 scFv-Fab IgG bispecific antibody
cytotoxicity assay in OV-90 ovarian cancer cells with human PBMC, two Effector:Target ratios (human CLDN6 [1]): ~10 fold more potent than RefMAB #3

binding result (human CLDN6 [2]): binds
B2: IMC-21-1 IgG-(scFv)2 antibody (bispecific antibody)
heavy: not shown
light: B1 light
notes: also called MC-21-1 antibody

binding result (human CLDN6 [3]): binds
B3: IMC-16-15 scFv-Fab IgG antibody (bispecific antibody)
heavy: B1 heavy with V100M, L114I, A116V
light: B1 light
scFv: B1 scFv

binding result (human CLDN6 [4]): binds
B4: IMC-2-7 tandem scFv antibody (bispecific antibody)
scFv: SYELTQPPSVSVSPGQTARITCSAGSGLYGWYQQKPGQAPVLVIYGTNKRPSGIPERFSGSSSGTTVTLTISGVQAEDEADYYCGSADSSTNAGIFGGGTKLTVLGGGGSGGGGSGGGGSEVQLLESGGGLVQPGGSLRLSCAASGFTFSSYAMNWVRQAPGKGLEWVAGISSSGRYTGYADSVKGRFTISRDNSKNTLYLQMNSLRAEDTAVYYCAKSVGSGVSWSGYVATSLDAWGQGTLVTVSSGGGGSEVQLVESGGGLVQPGGSLRLSCAASGFTFSTYAMNWVRQAPGKGLEWVGRIRSKYNNYATYYADSVKGRFTISRDDSKNTLYLQMNSLRAEDTAVYYCVRHGNFGDSYVSWFAYWGQGTLVTVSSGKPGSGKPGSGKPGSGKPGSQAVVTQEPSLTVSPGGTVTLTCGSSTGAVTTSNYANWVQQKPGKSPRGLIGGTNKRAPGVPARFSGSLLGGKAALTISGAQPEDEADYYCALWYSNHWVFGGGTKLTVL
notes: A single-chain tandem scFv (anti-CLDN6 scFv, then anti-CD3 scFv)
